Assay results as given in the supplement of paper PMC10065799, “High-throughput profiling of sequence recognition by tyrosine kinases and SH2 domains using bacterial peptide display” (eLife, 2023).

Molecular target: Hck (UniProt P08631)
Test: phosphorylation enrichment, bacterial display (enrichment ratio); higher = better substrate or ligand; peptides without Tyr show the background
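Also: 11-residue human phosphosite peptides and single-mutation variants displayed on the E. coli surface, counted by deep sequencing, each peptide's frequency after selection divided by its frequency in the unselected input library; frequency after pTyr selection over input frequency; kinase dosed for 20-30% of maximal phosphorylation in three min.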

Sequence of Hck (P08631 whole entry, looked up): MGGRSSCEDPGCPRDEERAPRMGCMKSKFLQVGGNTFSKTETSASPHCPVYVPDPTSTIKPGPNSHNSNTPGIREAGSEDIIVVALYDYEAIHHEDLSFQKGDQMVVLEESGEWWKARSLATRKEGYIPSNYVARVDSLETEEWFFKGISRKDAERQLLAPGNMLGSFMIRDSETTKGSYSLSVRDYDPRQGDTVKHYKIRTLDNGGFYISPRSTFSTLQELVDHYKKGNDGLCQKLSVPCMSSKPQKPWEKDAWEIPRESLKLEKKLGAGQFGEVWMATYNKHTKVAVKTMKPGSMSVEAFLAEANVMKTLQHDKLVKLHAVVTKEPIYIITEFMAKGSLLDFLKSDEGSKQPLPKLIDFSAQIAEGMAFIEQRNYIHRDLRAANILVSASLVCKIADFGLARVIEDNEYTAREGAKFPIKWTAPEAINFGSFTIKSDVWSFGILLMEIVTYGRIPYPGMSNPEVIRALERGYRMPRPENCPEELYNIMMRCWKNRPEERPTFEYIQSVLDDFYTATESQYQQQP

| Sequence | phosphorylation enrichment |
| --- | --- |
| RQNNSYTCFTA [SLC20A2_Y386_R382Q_YF] | 0.544 |
| SARHHYESLQT [BIN1_Y157] | 0.446 |
| EVGHVYLFLQP [ITGA2B_Y360_R358H] | 0.5 |
| SSRKEYFIGGG [GYPC_Y126] | 0.486 |
| RKKEEYKMALY [F8_Y1990] | 1.05 |
| VHLYAYDWISI [BEST1_Y227_G222V] | 1.83 |
| REVPVYIGEDS [SYNM_Y460] | 0.659 |
| HLQQSNLPRGT [TEX45_Y396_Y396N] | 0.534 |
| KEAALYPHLPP [SQSTM1_Y383] | 0.362 |
| KFLENYFDLKK [MMP3_Y41_YF] | 0.543 |
| NARGLYYKLHN [GATA2_Y376_C373R] | 0.954 |
| HSKGIYFVQLE [MGAT4B_Y262_Q257H_YF] | 1.12 |
| WASSSYRETPS [SORBS1_Y79_R74W] | 0.409 |
| NHQYDYTFDWT [CSNK1A1_Y294] | 0.543 |
| PAIERYVVVCK [RHO_Y136_L131P] | 0.551 |
| PFSNPYENSLI [EPOR_Y489_YF] | 0.848 |
| FSNKLYFQLEQ [PDPR_Y109_YF] | 0.694 |

| Sequence | phosphorylation enrichment |
| --- | --- |
| KVVNEYVTKGQ [MYH7_Y410_G407V] | 0.402 |
| DPHECYAKVFD [ALB_Y394] | 0.582 |
| MWGSDYVHLSR [MAP3K4_Y582_Q584H] | 0.486 |
| NKEPRYQEEPP [TJP2_Y479_D482E] | 0.508 |
| GYIISYREEEQ | 0.473 |
| EFGFRYELVQF [UGGT2_Y1289_Y1285F_YF] | 0.509 |
| MGGSLYFSFPD [HIKESHI_Y55_V54L_YF] | 4.95 |
| PFQGAYLEINK [MYO1B_Y967] | 0.361 |
| KFACSYTPVKA [FLNB_Y708_T703K_YF] | 0.509 |
| HNQDGYSYLSR [LDLR_Y845_P848L] | 0.793 |
| KRISCYEASFQ [PFKFB3_Y194_YF] | 0.49 |
| KCCCIYEKPRA [PPP1R11_Y64] | 2.67 |
| RAYRRYLLKQK [SCN2A_Y1919] | 0.51 |
| GDFFCYLAEVA [YWHAG_Y133_R132C_YF] | 0.608 |
| ARLEFCENEKK [IRS1_Y47_Y47C_YF] | 0.402 |
| QNTGDYFDLFG [PTPN11_Y62_YF] | 1.3 |

Molecular target: Jak2 (UniProt O60674)
Sequence (O60674 whole entry, looked up): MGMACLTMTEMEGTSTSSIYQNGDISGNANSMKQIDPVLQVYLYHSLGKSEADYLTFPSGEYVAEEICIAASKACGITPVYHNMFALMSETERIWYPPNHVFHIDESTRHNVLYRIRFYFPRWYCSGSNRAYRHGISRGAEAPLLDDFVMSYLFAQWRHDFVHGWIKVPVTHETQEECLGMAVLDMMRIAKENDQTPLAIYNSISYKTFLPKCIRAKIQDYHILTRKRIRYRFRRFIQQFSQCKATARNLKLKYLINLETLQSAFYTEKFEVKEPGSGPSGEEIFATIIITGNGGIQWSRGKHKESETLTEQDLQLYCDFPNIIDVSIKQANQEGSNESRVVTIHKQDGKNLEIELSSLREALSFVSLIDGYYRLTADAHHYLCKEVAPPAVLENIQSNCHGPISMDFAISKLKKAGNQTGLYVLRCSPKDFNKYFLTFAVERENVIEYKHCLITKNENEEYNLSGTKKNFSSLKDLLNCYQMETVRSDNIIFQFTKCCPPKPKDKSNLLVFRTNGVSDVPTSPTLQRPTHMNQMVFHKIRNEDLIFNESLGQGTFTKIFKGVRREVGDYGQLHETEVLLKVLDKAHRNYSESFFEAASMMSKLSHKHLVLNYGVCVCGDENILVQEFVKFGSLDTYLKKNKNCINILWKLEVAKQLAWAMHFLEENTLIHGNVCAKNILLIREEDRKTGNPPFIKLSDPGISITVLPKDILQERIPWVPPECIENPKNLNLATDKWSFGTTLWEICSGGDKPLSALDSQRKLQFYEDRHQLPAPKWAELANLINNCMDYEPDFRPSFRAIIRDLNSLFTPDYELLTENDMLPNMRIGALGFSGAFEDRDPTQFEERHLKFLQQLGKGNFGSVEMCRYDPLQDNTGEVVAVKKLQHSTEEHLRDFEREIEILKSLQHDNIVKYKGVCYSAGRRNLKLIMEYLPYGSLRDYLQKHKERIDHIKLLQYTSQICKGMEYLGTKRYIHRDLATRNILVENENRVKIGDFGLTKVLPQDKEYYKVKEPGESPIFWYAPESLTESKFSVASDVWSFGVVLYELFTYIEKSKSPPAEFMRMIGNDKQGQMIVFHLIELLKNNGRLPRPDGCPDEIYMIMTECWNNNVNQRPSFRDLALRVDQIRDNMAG
Test: as above

| Sequence | phosphorylation enrichment |
| --- | --- |
| RQNNSYTCFTA [SLC20A2_Y386_R382Q_YF] | 0.951 |
| SARHHYESLQT [BIN1_Y157] | 0.479 |
| EVGHVYLFLQP [ITGA2B_Y360_R358H] | 1.42 |
| SSRKEYFIGGG [GYPC_Y126] | 0.519 |
| RKKEEYKMALY [F8_Y1990] | 0.477 |
| VHLYAYDWISI [BEST1_Y227_G222V] | 1.33 |
| REVPVYIGEDS [SYNM_Y460] | 1.02 |
| HLQQSNLPRGT [TEX45_Y396_Y396N] | 0.689 |
| KEAALYPHLPP [SQSTM1_Y383] | 1.04 |
| KFLENYFDLKK [MMP3_Y41_YF] | 1.26 |
| NARGLYYKLHN [GATA2_Y376_C373R] | 2.12 |
| HSKGIYFVQLE [MGAT4B_Y262_Q257H_YF] | 2.27 |
| WASSSYRETPS [SORBS1_Y79_R74W] | 0.45 |
| NHQYDYTFDWT [CSNK1A1_Y294] | 0.899 |
| PAIERYVVVCK [RHO_Y136_L131P] | 1.08 |
| PFSNPYENSLI [EPOR_Y489_YF] | 3.41 |
| FSNKLYFQLEQ [PDPR_Y109_YF] | 1.49 |

| Sequence | phosphorylation enrichment |
| --- | --- |
| KVVNEYVTKGQ [MYH7_Y410_G407V] | 0.53 |
| DPHECYAKVFD [ALB_Y394] | 0.88 |
| MWGSDYVHLSR [MAP3K4_Y582_Q584H] | 1.72 |
| NKEPRYQEEPP [TJP2_Y479_D482E] | 0.915 |
| GYIISYREEEQ | 1.53 |
| EFGFRYELVQF [UGGT2_Y1289_Y1285F_YF] | 1.11 |
| MGGSLYFSFPD [HIKESHI_Y55_V54L_YF] | 3.96 |
| PFQGAYLEINK [MYO1B_Y967] | 1.24 |
| KFACSYTPVKA [FLNB_Y708_T703K_YF] | 0.747 |
| HNQDGYSYLSR [LDLR_Y845_P848L] | 0.679 |
| KRISCYEASFQ [PFKFB3_Y194_YF] | 1.06 |
| KCCCIYEKPRA [PPP1R11_Y64] | 1.34 |
| RAYRRYLLKQK [SCN2A_Y1919] | 0.486 |
| GDFFCYLAEVA [YWHAG_Y133_R132C_YF] | 1.39 |
| ARLEFCENEKK [IRS1_Y47_Y47C_YF] | 1.02 |
| QNTGDYFDLFG [PTPN11_Y62_YF] | 11.6 |

Molecular target: MERTK (UniProt Q12866)
Sequence (Q12866 whole entry, looked up): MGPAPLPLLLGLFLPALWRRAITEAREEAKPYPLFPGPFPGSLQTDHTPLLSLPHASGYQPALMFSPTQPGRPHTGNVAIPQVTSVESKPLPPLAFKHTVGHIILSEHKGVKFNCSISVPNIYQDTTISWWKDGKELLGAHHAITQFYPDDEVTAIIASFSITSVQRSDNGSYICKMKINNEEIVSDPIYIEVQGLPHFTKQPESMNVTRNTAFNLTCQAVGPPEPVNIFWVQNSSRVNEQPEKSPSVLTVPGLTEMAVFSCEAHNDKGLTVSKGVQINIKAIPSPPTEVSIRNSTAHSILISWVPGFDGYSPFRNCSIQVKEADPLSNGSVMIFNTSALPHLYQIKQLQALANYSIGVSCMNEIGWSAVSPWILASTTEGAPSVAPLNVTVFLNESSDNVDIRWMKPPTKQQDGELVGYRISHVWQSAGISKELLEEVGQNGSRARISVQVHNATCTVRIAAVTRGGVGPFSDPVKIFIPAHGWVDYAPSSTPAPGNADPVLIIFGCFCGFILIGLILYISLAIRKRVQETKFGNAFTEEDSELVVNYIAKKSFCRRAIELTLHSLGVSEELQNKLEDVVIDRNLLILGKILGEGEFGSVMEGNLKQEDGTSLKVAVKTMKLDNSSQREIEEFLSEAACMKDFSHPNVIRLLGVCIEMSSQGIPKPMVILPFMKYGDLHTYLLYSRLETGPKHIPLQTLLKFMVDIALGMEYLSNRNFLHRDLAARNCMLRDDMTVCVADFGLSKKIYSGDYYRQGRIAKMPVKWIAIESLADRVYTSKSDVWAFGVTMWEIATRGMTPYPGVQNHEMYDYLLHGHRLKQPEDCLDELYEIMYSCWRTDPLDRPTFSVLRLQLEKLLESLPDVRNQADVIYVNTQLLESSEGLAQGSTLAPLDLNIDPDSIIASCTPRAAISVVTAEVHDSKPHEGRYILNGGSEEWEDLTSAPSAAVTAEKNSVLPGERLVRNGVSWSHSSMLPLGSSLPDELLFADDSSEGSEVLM
Test: as above

| Sequence | phosphorylation enrichment |
| --- | --- |
| RQNNSYTCFTA [SLC20A2_Y386_R382Q_YF] | 0.938 |
| SARHHYESLQT [BIN1_Y157] | 0.455 |
| EVGHVYLFLQP [ITGA2B_Y360_R358H] | 0.393 |
| SSRKEYFIGGG [GYPC_Y126] | 0.309 |
| RKKEEYKMALY [F8_Y1990] | 0.462 |
| VHLYAYDWISI [BEST1_Y227_G222V] | 8.36 |
| REVPVYIGEDS [SYNM_Y460] | 0.426 |
| HLQQSNLPRGT [TEX45_Y396_Y396N] | 0.467 |
| KEAALYPHLPP [SQSTM1_Y383] | 0.391 |
| KFLENYFDLKK [MMP3_Y41_YF] | 0.446 |
| NARGLYYKLHN [GATA2_Y376_C373R] | 2.59 |
| HSKGIYFVQLE [MGAT4B_Y262_Q257H_YF] | 3.31 |
| WASSSYRETPS [SORBS1_Y79_R74W] | 0.39 |
| NHQYDYTFDWT [CSNK1A1_Y294] | 1.04 |
| PAIERYVVVCK [RHO_Y136_L131P] | 0.374 |
| PFSNPYENSLI [EPOR_Y489_YF] | 0.675 |
| FSNKLYFQLEQ [PDPR_Y109_YF] | 1.64 |

| Sequence | phosphorylation enrichment |
| --- | --- |
| KVVNEYVTKGQ [MYH7_Y410_G407V] | 0.375 |
| DPHECYAKVFD [ALB_Y394] | 0.42 |
| MWGSDYVHLSR [MAP3K4_Y582_Q584H] | 0.53 |
| NKEPRYQEEPP [TJP2_Y479_D482E] | 0.501 |
| GYIISYREEEQ | 0.539 |
| EFGFRYELVQF [UGGT2_Y1289_Y1285F_YF] | 0.375 |
| MGGSLYFSFPD [HIKESHI_Y55_V54L_YF] | 9.75 |
| PFQGAYLEINK [MYO1B_Y967] | 0.464 |
| KFACSYTPVKA [FLNB_Y708_T703K_YF] | 0.481 |
| HNQDGYSYLSR [LDLR_Y845_P848L] | 0.719 |
| KRISCYEASFQ [PFKFB3_Y194_YF] | 0.527 |
| KCCCIYEKPRA [PPP1R11_Y64] | 1.65 |
| RAYRRYLLKQK [SCN2A_Y1919] | 0.387 |
| GDFFCYLAEVA [YWHAG_Y133_R132C_YF] | 0.546 |
| ARLEFCENEKK [IRS1_Y47_Y47C_YF] | 0.434 |
| QNTGDYFDLFG [PTPN11_Y62_YF] | 3.03 |

Test system: c-Abl (mouse)
Test: as above

| Sequence | phosphorylation enrichment |
| --- | --- |
| RQNNSYTCFTA [SLC20A2_Y386_R382Q_YF] | 0.802 |
| SARHHYESLQT [BIN1_Y157] | 0.636 |
| EVGHVYLFLQP [ITGA2B_Y360_R358H] | 0.885 |
| SSRKEYFIGGG [GYPC_Y126] | 0.429 |
| RKKEEYKMALY [F8_Y1990] | 0.632 |
| VHLYAYDWISI [BEST1_Y227_G222V] | 0.865 |
| REVPVYIGEDS [SYNM_Y460] | 0.595 |
| HLQQSNLPRGT [TEX45_Y396_Y396N] | 0.703 |
| KEAALYPHLPP [SQSTM1_Y383] | 0.669 |
| KFLENYFDLKK [MMP3_Y41_YF] | 0.816 |
| NARGLYYKLHN [GATA2_Y376_C373R] | 0.874 |
| HSKGIYFVQLE [MGAT4B_Y262_Q257H_YF] | 1.31 |
| WASSSYRETPS [SORBS1_Y79_R74W] | 0.391 |
| NHQYDYTFDWT [CSNK1A1_Y294] | 0.646 |
| PAIERYVVVCK [RHO_Y136_L131P] | 0.928 |
| PFSNPYENSLI [EPOR_Y489_YF] | 1.18 |
| FSNKLYFQLEQ [PDPR_Y109_YF] | 0.796 |

| Sequence | phosphorylation enrichment |
| --- | --- |
| KVVNEYVTKGQ [MYH7_Y410_G407V] | 0.513 |
| DPHECYAKVFD [ALB_Y394] | 0.692 |
| MWGSDYVHLSR [MAP3K4_Y582_Q584H] | 0.804 |
| NKEPRYQEEPP [TJP2_Y479_D482E] | 0.907 |
| GYIISYREEEQ | 0.909 |
| EFGFRYELVQF [UGGT2_Y1289_Y1285F_YF] | 0.64 |
| MGGSLYFSFPD [HIKESHI_Y55_V54L_YF] | 1.61 |
| PFQGAYLEINK [MYO1B_Y967] | 0.497 |
| KFACSYTPVKA [FLNB_Y708_T703K_YF] | 0.577 |
| HNQDGYSYLSR [LDLR_Y845_P848L] | 0.551 |
| KRISCYEASFQ [PFKFB3_Y194_YF] | 0.88 |
| KCCCIYEKPRA [PPP1R11_Y64] | 7.54 |
| RAYRRYLLKQK [SCN2A_Y1919] | 0.42 |
| GDFFCYLAEVA [YWHAG_Y133_R132C_YF] | 1.12 |
| ARLEFCENEKK [IRS1_Y47_Y47C_YF] | 0.868 |
| QNTGDYFDLFG [PTPN11_Y62_YF] | 1.48 |
